# The DeepSol protein solubility set
# Test: soluble on expression in E. coli; label from the status in PepcDB or PDB records
row,Sequence,soluble on expression in E. coli
1,MLVDHLLARGATDVRALTNHPDKAQLPDSVTVVEGYLRRLGSLPAAFEGVDSLYLAPTPDTAPDALALAKQAGVRHVVDLSGPHDGHWGDVARAVEASGIEWTHLWPGEFMENAGILAPQITAGDTVREPYPTAANAPIAMDDIAEVAAVALLESGHVGASYELTGPETITRAELVRELGAALGRNIEYRQVSLDEAVDVLTPAMGEYARWY,not soluble
2,MGSDKIHHHHHHMTQPFIPEQEYKRTDLHKQYGGNAQSGISNCANYPYIFIFSGVTGKQHGYKDGWENPNVFEYTGEGQMGDMSFTRGNLALRDHIDNGKQVFLFQYQRSGIVKYICELEFYDTDYFPTHDSSKQLRVGIRFFLKRKGAILPSVKELNQSTDFLAAESIPFYGIDSIKETSRKGEVNLRVGQGAYRKSIIHHWQYKCAVTGFDKLNLLNASHIHPWKDATDKERLDVNNGILLSPTYDALFDKHLISFENDGKIILSDTIHFSAYQKIGVTGKEKIKELNSNSILYIEKHRHLLLKY,not soluble
3,AKKIGIEQSLSDVEAALKEKGYDVVMMKSPADAQGCDCCVVTGLDNNVQGIADTVTQAPVITASGMTAEEICSEVESRIQ,not soluble
4,MNEFMEPLDRISAETLGHYERNAEAFFEGTRDHDVSQNIAALLSHIRTEPPFTVLDFGCGPGRDLKAFTELGHRAVGLDGAFRFVEMARDYSGCEVWHQDFLKLDLPEEHFDGIFANATLFHVPSRELPRVLGELRAALKPEGVLFASNPRGRNEEGWNRGRYGVYHDLDTWRRFLTSAGFLELEHYYRPAGLPRDQQPWLASVWRRTLEHHHHHH,soluble
5,MMYRIRNWLVATLLLLCAQVGAATLSDIQVSNGNQQARITLSFIGDPDYAFSHQSKRTVALDIKQTGVIQGLPLLFSGNNLVKAIRSGTPKDAQTLRLVVDLTENGKTEAVKRQNGSNYTVVFTINADAPPPPPPPPVVVKRVETPTVVAPRVSEPARNPFKTESNRTTGVISSNTVTRPAARATANNGDKIIIAIDAGHGGQDPGAIGPGGTREKNVTIAIARKLRTLLNDDPMFKGVLTRDGDYFISVMGRSDVARKQNANFLVSIHADAAPNRSATGASVWVLSNRRANSEMASWLEQHEKQSELLGGAGDVLANSQSDPYLSQAVLDLQFGHSQRVGYDVATSMISQLQRIGEIHKRRPEHASLGVLRSPDIPSVLVETGFISNNSEERLLASDDYQQQLAEAIYKGLRNYFLAHPMQSAPQGATAQTASTVTTPDRTLPN,not soluble
6,MSLKKVTLLVLDGFGVGAMADCEKVKPEDVNANTYKHLREAVDIHIPTLYQLGLGNIVDHLDTARAAYGRCDLAHHGADTFMGHQELMGSKPGVPQKRLMSEVGATIKKNLEKHGYDVRDPVEGAPVLLVNEAVVVGDNLESEVGNIINVVGDFRKLSFEQTIEVGKVVRSSVDTSRVIVYGNKEKTSIDLILSTIKERHPGQWGVDSPKANVYGEGYQVLHLGYGVDYEKQFAHLAEKQRLPVYRIGKTADVIQASGYHNPVVSTRKVLEVYQHEYSKSERDSVFLVNVQETDLAGHKEDCLWYKEVIEEVDRFLASFIDELDEEDLLIITADHGNDPTIGHSNHTREQTPVIIVGPQVRPISIGTRQTMADLAATMADYMGVAPPQYGTSFLHQILREGHHHHHH,soluble
7,MGSDKIHHHHHHLKVIAIGDNVVDLYPADKQMYLGGHAANTAVFAAELGLQAAYIGTFGNDARGDFARRMLVERGVDVQHSLQYVGRNAFTTITGKDGARRKVVGEPPQELRLDPEDIAYINSFDLVYLNSESHADAFLQAITARKVYDFSILDDDKLFKKIAPQIDLAYLSGKARSDDDVEALMRRVAAAGCDRIVCSRGLRGSAALVDGMMSWQQALGVKAVDSLGAGDAYITSFAATLYSSSKPTLDAKVSESLSHAAKFASAQVLLPGSFGHGAPLIS,not soluble
8,MTGPTPTEAVDITVSVGGFKVGDQNYPINPKITFTNNTGQAIPGGTEFQFDIPVSAPDNAKDQSGGGLKVIASGHTRANNIGGLDGVMHRVSFSLPAWKDLPAGGTYELDMVYYLPISGPANYSVISGGKEFAFKFEQPDLPIGDLNAGTGGGGTTEPGSCDTAGLVTYPNLPQTDLEHHHHHH,soluble
9,MQENSPLLQLQNVGYLAGDAKILNNINFSLRAGEFKLITGPSGCGKSTLLKIVASLISPTSGTLLFEGEDVSTLKPEIYRQQVSYCAQTPTLFGDTVYDNLIFPWQIRNRQPDPAIFLDFLERFALPDSILTKNIAELSGGEKQRISLIRNLQFMPKVLLLDEITSALDESNKHNVNEMIHRYVREQNIAVLWVTHDKDEINHADKVITLQPHAGEMQEARYELA,not soluble
10,MDIFPGRLYLKKEVETVEGLQEILAISANRCFRCGNTNPFLFGKMTCASCDREDCLYCRNCIVMGRVNSCQKLYYQKADILPERIESCLGWEGTLSPGQKKAASAVVSSIKQKVDMLLWAVAGSGKTEMMFEGMDLALKQGFRICIASPRVDVCLELYPRLQAVFKEIDIVCLYGDSKDKYQGEQFVVATTHQLIRFYDTFQVIFIDEVDAFPYAKDPFLEYAVRKARTKVGSTIIITATPEKKWQQECATGKRNFVKIPARYHRKQLPVPRTCWIGPWKKNLAQGKITLKLINWIKKAELKNQPVLIFFPEIEAMNQFAEALVNYDFTRPVTVHSADQLRKEKVEWLREGKIKLLLTTTILERGVTFKDVQVAVFGSEGRIFTEAALVQIAGRAGRKLTHPTGDVCFFHYGKTTEMNRAITHIKKMNQLGFKEGLLDD,not soluble
11,MTRRGVALVARRLPSSPGRVYAVKIDEGEDVHSVLSSLAEAEDLGFAMVTGIGGMAEATVAFYSPPEATYYTVDVKPPEGRVIEVAAMTGNIVKTSQGYSVHIHVALGVSPGKSISGHLVKGVVKPFMEVFVVELVSGQGTPGTSVFDHREGFKASYKRLEAAALEHHHHHH,not soluble
12,MSLAKPTDIRIRDVRISAEHINYRTPIKFGGRVVNDVTLLNVALDVETADGRRGSGFGSMPMGNVWAWPTSTTSGDATLQAMVDIGTAIAEAAPQLDLSGHPLELTAAAHSQYGSIASTIAHKANITEAVPKLATLVAASPVEAAIHDAYGKALGLNSYNVLGADFANTDLASYLSPEFAGEYLDRYTLRTPQPQMPLYHLIGALDPLDQDELQNPVGDGLPETLGDWITADGLTHLKIKLNGDNLDWDVARVAKIDAVAIDAQAKRGCKAWQYSLDFNERCPNVQYILDFLAKLSESSPEALDRVQYIEQPTSRDLRANPENRMHAAAKIKPVVIDESLIDYESLLLAREQGYSGVALKACKGQSEALLMGAAAQKFGMFLCVQDLTCPGASFLHSASLAARMPTIAAIEGNGRQYCPAGNAEWAKRYPSMFDITQGYVGTAVLTEPGLGYEGHHHHHH,not soluble
13,MSLSTIGSMMSIYSEAGDFGNIFVTGRIAFSLKYEQQTQSLVVHVKECHQLAYADEAKKRSNPYVKTYLLPDKSRQGKRKTSIKRDTVNPLYDETLRYEIPESLLAQRTLQFSVWHHGRFGRNTFLGEAEIQMDSWKLDKKLDHCLPLHGKISAESPTGLPSHKGELVVSLKYIPASKTPVGGDRKKSKGGEGGELQVWIKEAKNLTAAKAGGTSDSFVKGYLLPMRNKASKRKTPVMKKTLNPHYNHTFVYNGVRLEDLQHMCLELTVWDREPLASNDFLGGVRLGVGTGISNGEVVDWMDSTGEEVSLWQKMRQYEGHHHHHH,not soluble
14,MGHHHHHHSHLEDFFKNMVKSADGVIVSGVKDVDDFFEHERTFLLEYHNRVKDASAKSDRMTRSHKSAADDYNRIGSSLYALGTQDSTDICKFFLKVSELFDKTRKIEARVSADEDLKLSDLLKYYLRESQAAKDLLYRRSRSLVDYENANKALDKARAKNKDVLQAETSQQLCCQKFEKISESAKQELIDFKTRRVAAFRKNLVELAELELKHAKGNLQLLQNCLAVLNGDT,not soluble
15,MGSDKIHHHHHHMRKINMMTTFECRVHTLEFDENYQPEMQSTRLTTNFANLARGENRKENLQNVIAMIDKRFNDLANWDNPTNDRYSVKLEIVSIDIDMEGKGKFFPALEWLKTYVIDHKTGKRIDGIVGNNFSSFVRDYDFSVLLLEHNRNKEEFTVPKGYGELHGKLFKYLLTSSAYKEKYSKPPVICLSVATTRTYRRTTNVHPILGVEYHQDNYSLTDEYFAKMGLSVRYFMPPKSVAPYAFYFDSNSDLLNDYTNLELISTIATMEAFQKIYRPEIYNANSVAGQVYKGSLTYQDYSVTKVEYDRVERTQLAIKQGKYTEAHFIKPYKAILDAWMAEK,not soluble
16,MGSDKIHHHHHHMVYVNANVDTKVDNRKDNCDNTNTYSHTVDRKDNFDNTTTNTKTVNRNDNCNNQEEGDVNMYRRNDNCNNREATNSRSANYSIHNQGMINCYNGIAIDNRAFNSSGANTMAGTEFLRAFLDAPMSVMPGSRKNAIMDRQEGSTQPAIRYNNR,not soluble
17,MQCGLLKHRLLKFFSTEAIMTTNQRSIKAPQTVVVKLGTSVLTGGTLALDRAHMVELARQCAELKKQGHSVVIVTSGAIAAGREHLGYPALPNAISSKQLLAAVGQSRLIQVWESLFAIYGIKIGQMLLTRADLDDRERFLNARDTINALVENGIVPVVNENDAVATNEIKVGDNDNLSALVGILCGADKLLLLTDQKGLFTADPRKDPNAQLIKEVTTIDDTLRKIAGGSGTTLGTGGMATKLQAADIARRAGIEVIIAAGRAPNVIFDSLSDEPQGTRFLALEEALENRKRWILAGPAASGDIVIDDGAVKAVQTKGSSLLAKGVVRVQGQFARGEVVRVLDKQSHLIARGIAAYSNDELAQIAGKHSKEIIDILGYDHGSEVIHRDDMVVIQE,not soluble
18,MVLAALVLVLEGEGLPEPLGLRGFFYGLLREVAPEVHDQGENPFALGFGGREGAAWARVSLLVEGLYARLAPRLYALEGEEVRLGPPFRVRAVLQEGHPWAGVSTYPRLFQGPPSRDLALRFASPTFFRRKGVHYPVPEPRLVLESLLRRLEAFGPLKAPEGVREALLERTTVRSLEGRTLPARTEVDTAGFVGRVVYHLPRATEEEALWLSALGRFAFYSGVGAKTSLGYGRARAESA,soluble
19,MHSEKSVMMEPMTNPKNDPRNPDLLLDFEEVEFTRGGKTLVGPITWQVELDERWVILGPNGAGKTTLIRMAAAEEFPSKGALWIMGERIGKTDMRDLRAMIGVSSSALGNRIPTNEKVLDLVISAGYAILGRWREEYDKWDHDRAIEILEQVGAYHLADQTWGTLSEGERKRVLVARALMTNPELLLLDEPTAGMDLGGREDLVGYLAQLAMDPDAPAMVMITHHVEEIPAGFTHALLLDEGEVVSQGLIDEVLTSANLTKAFHQPIKVDKIDGRYFARRQRTARSHRR,not soluble
20,MGHHHHHHSHMNCCGIWPFGKPGVPYKRLADVETDERMEMEIRLGMPPGVLAADLIRSTKDKQVLEQLYLLAVQANNLTEHIKRFTLGEIPEECKNVTRSQLEKLKSVQHIIWNTMISLAAGAISVDEATLPALLDKRAEETVALLEMEKIATAVKLDETAAWATDIAGIVSSQPLATPPSESPDQIALKKATQLSNAVY,soluble
